Measured values as given in patent publication US20240010747A1, “ANTI-MRP4 (ENCODED BY ABCC4 GENE) ANTIBODIES AND USES THEREOF” (Kenjockety Biotechnology, Inc., priority 2020, published 2024).

T1: human ABCC4 (Homo sapiens, UniProt O15439)
T1 construct: expressed in transfected cells
T1 sequence (O15439 1-1325): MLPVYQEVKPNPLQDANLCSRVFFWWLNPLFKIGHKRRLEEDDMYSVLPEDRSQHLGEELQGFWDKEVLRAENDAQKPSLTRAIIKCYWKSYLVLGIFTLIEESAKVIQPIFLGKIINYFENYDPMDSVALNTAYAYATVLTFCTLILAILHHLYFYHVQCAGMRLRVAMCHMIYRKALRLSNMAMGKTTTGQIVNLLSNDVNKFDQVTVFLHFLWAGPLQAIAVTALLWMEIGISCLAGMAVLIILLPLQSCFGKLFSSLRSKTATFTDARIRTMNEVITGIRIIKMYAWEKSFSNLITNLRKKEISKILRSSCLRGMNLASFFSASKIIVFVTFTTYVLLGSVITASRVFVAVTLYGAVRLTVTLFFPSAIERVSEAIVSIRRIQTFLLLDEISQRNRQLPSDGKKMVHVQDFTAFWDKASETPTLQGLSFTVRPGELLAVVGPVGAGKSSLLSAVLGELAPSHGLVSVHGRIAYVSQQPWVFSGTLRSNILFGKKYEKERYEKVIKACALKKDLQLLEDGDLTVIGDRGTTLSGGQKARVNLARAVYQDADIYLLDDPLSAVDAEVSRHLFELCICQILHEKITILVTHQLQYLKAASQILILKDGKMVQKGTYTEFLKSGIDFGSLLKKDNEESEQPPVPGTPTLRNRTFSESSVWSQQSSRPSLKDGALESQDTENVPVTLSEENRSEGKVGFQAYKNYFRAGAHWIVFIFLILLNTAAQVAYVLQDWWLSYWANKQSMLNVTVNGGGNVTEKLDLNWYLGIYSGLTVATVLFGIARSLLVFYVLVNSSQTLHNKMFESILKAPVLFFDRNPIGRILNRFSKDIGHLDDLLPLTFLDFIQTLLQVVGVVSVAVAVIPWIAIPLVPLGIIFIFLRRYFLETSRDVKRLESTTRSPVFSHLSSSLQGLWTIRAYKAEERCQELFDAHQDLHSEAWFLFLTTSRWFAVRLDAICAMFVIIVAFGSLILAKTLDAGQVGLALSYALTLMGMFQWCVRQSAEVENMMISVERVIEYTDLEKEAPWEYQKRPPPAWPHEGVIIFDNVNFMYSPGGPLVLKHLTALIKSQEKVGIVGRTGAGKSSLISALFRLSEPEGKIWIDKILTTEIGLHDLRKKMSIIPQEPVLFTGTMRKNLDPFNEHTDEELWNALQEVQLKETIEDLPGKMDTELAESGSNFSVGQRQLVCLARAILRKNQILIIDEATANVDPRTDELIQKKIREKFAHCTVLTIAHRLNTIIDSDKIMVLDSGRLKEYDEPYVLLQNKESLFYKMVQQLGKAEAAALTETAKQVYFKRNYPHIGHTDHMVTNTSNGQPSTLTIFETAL

B1: C4.976: anti-ABCC4 antibody raised in rats; VH SEQ ID NO: 12, VL SEQ ID NO: 132 (antibody, V domains shown)
VH: EVKLLESGGGLVQPGRSLKVSCVASGFIFSDYYMAWVRQAPTKGLEWVAYINYDGGSTYYGDSVKGRFTISRDNAKSSLYLQMNSLRFEDMATYYCARRDYGSKFDYWGQGVMVTVSS
VL: EIVIIQSPALAVSLGQRATISCKTNQNVDYYGNSYIHWYQQKPGQQPKLLIYLASNLASGIPARFSGRGSGTDFTLTIDPVEADDPATYYCQQSRNLPFTFGSGTKLELK
B2: C4.953: anti-ABCC4 antibody raised in rats; VH SEQ ID NO: 6, VL SEQ ID NO: 129 (antibody, V domains shown)
VH: QVTLKESGPGILQPSQTLSLTCTFSGFSLSTYGMGVGWIRQPSGKALEWLANIWWDDDKSYNPSLKNRLTISKGTSNNQAFLKITSVDTADSATYHCARIGSGNSEFDYWGQGVMVTVSS
VL: DVVLTQSPSSLSASLGDRVTITCRASQDIGNYLTWFQQKPGKSPRRMIYGATNLAAGVPSRFSGSRSGSDYSLTISSLESEDVADYHCLQSIQYPFTFGSGTKLEIK
B3: C4.961: anti-ABCC4 antibody raised in rats; VH SEQ ID NO: 9, VL SEQ ID NO: 130 (antibody, V domains shown)
VH: EVQLKESGPGLVQPSQTLSLTCAVSGFSLTNYHVHWVRQPPGKGLEWMGVMWSDGDTSYNSALKSRLSISRDTSKSQFFLKMNSLQTEDTATYYCARGGVYFDYWGQGASVTVSS
VL: DIVMTQSPSSLAVSAGETVTINCKSSQSLLYSGNQKNSLAWYQQKPGQSPKLLIYWASTRQSGVPDRFIGSGSGTDFTLTFSSVQAEDLAIYYCQHYFDTPYTFGAGTKLELK
B4: C4.886: anti-ABCC4 antibody raised in rats; VH SEQ ID NO: 2, VL SEQ ID NO: 125 (antibody, V domains shown)
VH: EVKLLESGGDLLQPGRSLKLSCAASGFTFNDYNMAWVRQAPKKGLQWVATILYDGSRTYYRDSVKGRFTISRDNSKSTLYLQMDSLRSEDTATYYCTTEFGYGSSHWFACWGQGTLVTVSS
VL: DVVLTQTPVSLPVSLGGQASISCRSSQSLVHSNGNTYLHWYLQKPGQSPQLLISRISNRFSGVPDRFSGSGSGTDFTLKISRVEPEDLGDYYCFQSTHFPHTFGAGTKLEIK
B5: C4.927: anti-ABCC4 antibody raised in rats; VH SEQ ID NO: 4, VL SEQ ID NO: 127 (antibody, V domains shown)
VH: EVQLVESGPGLVQPSRTLSLTCTVSGFSLTSYGVSWVRQPPGKGLEWIAAIWSGGSTDYNSALKSRLSISRDTSKSQVLLKMNSLQTEDTAMYFCARGATEGIDYWGQGASVTVSS
VL: AIQVTQSPTSLSASLGDRVTLTCRASQDINNKMAWYQQKPGEVPQLLIYYASTLQSGTPSRFSGSGSGTDFSFTISHLQSEDFATYYCLQGYSLYTFGAGTKLELK

What follows are molecules tested against T1, human ABCC4 (assay: Flow cytometry (FACS) binding to C6 cells stably transfected to express human ABCC4 (Table 3 study)). Details: C6 cells stably transfected to express human ABCC4, FACS; Table 3.
Procedure: (§1) Binding titration of recombinant antibodies to ABCC4 transfectants was performed by serial dilution of antibodies from about 666 nM. Diluted antibody in flow cytometry buffer was incubated with cells on ice for 30 min. After 2 washes with flow cytometry buffer, bound antibody was detected with PE-labeled F(ab′)2 fragment goat anti-human IgG (Jackson ImmunoResearch) diluted 1:200 in flow cytometry buffer and incubated with cells for 20 min on ice. After 2 washes with flow cytometry buffer fluorescence was measured on an Attune N×T flow cytometer. Data were analyzed with GraphPad Prism 8.0 software to determine EC50's.
(§2) Human embryonic kidney HEK 293T cells and murine C6 (ATCC CCL-107) were transfected with human or cynomolgus ABCC4 cDNA with C-terminal fused FLAG tag in a pMONO-hygro vector with Lipofectamine 3000 (Invitrogen #L3000001). The cells were treated with 0.2 mg/ml and 0.5 mg/ml hygromycin respectively for about 2 weeks while cultivated in DMEM and 10% FBS with 0.2 mg/ml hygromycin and 0.5 mg/ml hygromycin, respectively. The cells were washed with PBS, and stained with […] of anti-FLAG-PE after fixing and permeablization. Clones expressing ABCC4 were single-cell sorted into 200 μl DMEM with 10% FBS using a BD Aria FACS machine and cultivated in 96 well plates using standard techniques in an incubator at 37° C. and 5% CO 2. Two weeks later clones expressing high levels of ABCC4 were screened and amplified.
(§3) Antibody binding to cells was evaluated by flow cytometry. Murine C6 cells stably transfected to express human or cynomolgus ABCC4 were washed once in flow cytometry buffer (PBS+2% FBS+0.02% sodium azide), resuspended at 2×10^6 cells/mL in flow cytometry buffer, and dispensed into 96-well microtiter plates at 0.1 mL/well. Recombinant antibodies were added to cells at 5 ug/mL for initial binding confirmation, or serially diluted from 100 ug/mL in flow cytometry buffer. After incubating cells on ice for 30 min, cells were washed twice with flow cytometry buffer. Bound antibody was detected with PE-labeled F(ab′)2 fragment goat anti-human IgG (Jackson ImmunoResearch) and evaluated on an Attune N×T flow cytometer. EC50 is calculated to be the concentration of antibody that gives half maximal response.
(§4) Table 3 lists the following characteristics of the rat anti-ABCC4 antibodies tested: binding to C6 cells stably transfected to express human ABCC4 measured by FACS and binding to C6 cells stably transfected to express cynomolgus ABCC4 measured by FACS. Negative (−) is defined as maximum response (Rmax(MFI)) below background level. Positive (+) is defined as MFI>1000.

Row | Molecule | Human ABCC4 binding
1 | B1 | + (Positive (+) is defined as MFI>1000)
2 | B2 | + (Positive (+) is defined as MFI>1000)
3 | B3 | + (Positive (+) is defined as MFI>1000)
4 | B4 | + (Positive (+) is defined as MFI>1000)

Same assay, conditions: Table 3 study, stated in words

Row | Molecule | binding to human ABCC4 expressed on cell surface
5 | B1 | bind to both human and cynomolgus ABCC4
6 | B3 | bind to both human and cynomolgus ABCC4

What follows are molecules tested on cynomolgus ABCC4 (assay: Flow cytometry (FACS) binding to C6 cells stably transfected to express cynomolgus ABCC4 (Table 3 study)). Details: C6 cells stably transfected to express cynomolgus ABCC4, FACS; Table 3.
Parameters: key to Cynomolgus ABCC4 binding: Negative (−) is defined as maximum response (Rmax(MFI)) below background level; Positive (+) is defined as MFI>1000
Procedure: as §1, §2, §3, §4

Row | Molecule | Cynomolgus ABCC4 binding
7 | B1 | + (Positive (+) is defined as MFI>1000)
8 | B2 | −
9 | B3 | + (Positive (+) is defined as MFI>1000)
10 | B4 | −

Same assay, conditions: Table 3 study, stated in words

Row | Molecule | binding to cynomolgus ABCC4 expressed on cell surface
11 | B1 | bind to both human and cynomolgus ABCC4
12 | B3 | bind to both human and cynomolgus ABCC4

Each molecule was assayed against T1, human ABCC4 (assay: Flow cytometry (FACS) binding to C6 cells stably transfected to express human ABCC4 (different experiment, Table 4)). Details: C6 cells stably transfected to express human ABCC4, FACS; different experiment, Table 4.
Procedure: as §1, §2, §3
(§5) In a different experiment, using a different C6.cC4 cell line, detecting the binding of anti-ABCC4 antibodies to C6 cells stably transfected to express human ABCC4 measured by FACS and to C6 cells stably transfected to express cynomolgus ABCC4 measured by FACS, the results set forth in Table 4 were obtained. Negative (−)=Rmax (MFI) below background level. Positive (+)=MFI>3× background level.

Row | Molecule | Human ABCC4 binding
13 | B1 | + (Positive (+)=MFI>3× background level)
14 | B2 | + (Positive (+)=MFI>3× background level)
15 | B5 | + (Positive (+)=MFI>3× background level)
16 | B3 | + (Positive (+)=MFI>3× background level)
17 | B4 | + (Positive (+)=MFI>3× background level)

Same assay, conditions: Table 4 study, stated in words

Row | Molecule | binding to human ABCC4 expressed on cell surface
18 | B1 | bind to both human and cynomolgus ABCC4
19 | B2 | bind to both human and cynomolgus ABCC4
20 | B3 | bind to both human and cynomolgus ABCC4
21 | B4 | bind to both human and cynomolgus ABCC4

What follows are molecules tested on cynomolgus ABCC4 (assay: Flow cytometry (FACS) binding to C6 cells stably transfected to express cynomolgus ABCC4 (different experiment, different C6.cC4 cell line, Table 4)). Details: Table 4 study, stated in words.
Parameters: key to Cynomolgus ABCC4 binding: Negative (−)=Rmax (MFI) below background level; Positive (+)=MFI>3× background level
Procedure: as §1, §2, §3, §5

Row | Molecule | binding to cynomolgus ABCC4 expressed on cell surface
22 | B1 | bind to both human and cynomolgus ABCC4
23 | B2 | bind to both human and cynomolgus ABCC4
24 | B3 | bind to both human and cynomolgus ABCC4
25 | B4 | bind to both human and cynomolgus ABCC4

Same assay, conditions: different C6.cC4 cell line, C6 cells stably transfected to express cynomolgus ABCC4, FACS; Table 4

Row | Molecule | Cynomolgus ABCC4 binding
26 | B1 | + (Positive (+)=MFI>3× background level)
27 | B2 | + (Positive (+)=MFI>3× background level)
28 | B5 | −
29 | B3 | + (Positive (+)=MFI>3× background level)
30 | B4 | + (Positive (+)=MFI>3× background level)
